This note sets out measurements from patent US12441790B2, “Binding proteins to the human thrombin receptor, PAR4” (MONASH UNIVERSITY, priority 2017, dated 2025).

The subject of assay [1] is human whole blood. The assay can be described thus: Human whole blood thrombosis assay. The format is cell-based. Particulars: 10 minute endpoint; 5A.RC3 100 μg/ml, hirudin 800 U/ml. The procedure: Human whole blood collected in citrate (3.2%) was pre-incubated for 15 min at 37° C. with PE-conjugated anti-CD9 antibody (4 μg/mL) and an anti-fibrin antibody (5 μg/ml), and one of hirudin (800 U/ml), DMSO (1% v/v), PAR-1 antagonist E5555 (1 μM), anti-PAR4 antibody (0.2 mg/ml) or the combination of both PAR inhibitors. Whole blood was re-calcified with 5-7.5 mM CaCl2 (final concentration) to initiate coagulation, and drawn over glass microslides (1×0.1 mm internal diameter) coated with bovine type 1 collagen (250 μg/ml) at a fixed flow rate of 0.06 ml/min, resulting in a wall shear rate of 600 s^−1. Dual colour confocal fluorescence images were recorded at 488 and 561 nm excitation, collected through a 40× water immersion objective. Confocal z-stacks were continuously recorded for 2 min before modified, calcium-free Tyrode's buffer was flowed over the thrombi and z-stacks encompassing the entire height of the thrombus field were recorded over a period of 10 min. Platelet thrombi were defined using anti-CD9-PE and fibrin volume was quantified using average fluorescence of the thrombus field. Data were normalised against the hirudin baseline and expressed as a percentage of the control.
Thrombosis parameters including platelet deposition, thrombin activity, fibrin volume and ratio of fibrin per thrombus were measured in real-time over a period of 10 minutes in a whole blood thrombosis assay as described herein under conditions of coagulation.
Platelet deposition (PE-conjugated anti-CD9), thrombin activity (FRET-based thrombin probe), fibrin volume (Dylight650-conjugated anti-fibrin antibody) and the ratio of fibrin per thrombus at the 10 minute end-point is shown in FIG. 10A by confocal microscopy (to allow for volume measurements to be taken) using a Nikon Air with a 25× lens and 2× digital magnification.
The volume of human thrombi formed after 3 min was quantified by confocal microscopy in an ex vivo human whole blood thrombosis assay.

For assay [2], the target named is T1, hPAR4 peptide (Homo sapiens, UniProt Q96RI0).
T1 construct: host or cells: synthetic peptide
The assay can be described thus: ELISA of purified mAbs on hPAR4 peptide. The class given is binding. Particulars: dilutions of purified mAbs. How it is done: (§1) The kinetics of the binding interaction between the mAbs and hPAR4 was measured using Surface Plasmon Resonance (SPR; Biacore) by two different methods: 1. Anti-mouse Fc mAb capture method and 2. Streptavidin (SA) chip to capture biotinylated peptide. The ka(on) rate and kd(off) rates and KD were measured and fitted to a Langmuir model using the Biacore evaluation software.
The experiment was completed with purified mAbs diluted in PBS instead of hybridoma supernatants.
The reactivity of seven purified anti-hPAR4 mAbs was analysed by ELISA (see Table 4).

Assay [3] addresses T1, hPAR4 peptide. The assay can be described thus: mAb capture SPR (Biacore, anti-mouse Fc capture). The class given is binding. How it is done: (§2) Biacore analysis was performed on a Biacore T200 using two different methods either an anti-mouse Fc capture approach or using a similar method as described above using the ProteoOn system.
A series S CM5 sensor chip was activated with standard EDC/NHS amine coupling chemistry using the manufacturers recommended protocol with Goat anti-mouse IgG Fc. Anti-hPAR4 mAbs were captured at 1-2 ug/ml for 2 minutes at 10 ul/minute on flow cell 2 (FC2) and flow cell 1 (FC1) was used as a reference channel. […] Blank injections of buffer alone were also performed. All injections were performed in duplicate and in a random order. After each capture/injection/dissociation cycle the chip was regenerated with a 30 second injection of 0.1M Glycine pH2.0.
(§3) For the mAb capture method low levels of ligand mAb and analyte hPAR4 were used in an attempt to produce a 1:1 binding interaction, this method has been used successfully to measure kinetics and affinity KD's (Kamat V and Rafique A (2017) Analytical Biochemistry 530:75-86), despite using a whole IgG.
as §1

Assay [4] addresses T2, hPAR4-biotinylated peptide (Homo sapiens, UniProt Q96RI0).
T2 construct: host or cells: synthetic peptide
The assay can be described thus: SA chip biotin peptide SPR (Biacore, streptavidin capture). The class given is binding. How it is done:
as §2
A series S sensor chip SA was conditioned using the manufacturers recommended protocol and immobilised with 1 ug/ml hPAR4-biotinylated peptide on FC2 and hPAR1-biotinylated peptide as a control onto FC1. […] Blank injections of buffer alone were also performed. All injections were performed in duplicate and in a random order. After each capture/injection/dissociation cycle the chip was regenerated with a 30 second injection of 0.1M Glycine pH2.0.
as §3, §1

Assay [5] relates to human platelets. The assay can be described thus: Functional screen of hybridoma supernatants by platelet aggregation assay. The format is cell-based. Particulars: aggregation as % of control. The procedure: Platelet aggregation was measured by light transmission aggregometry in a 96-well plate format. Human isolated platelets (2×10^8/ml) were pre-treated for 10 mins at 37° C. with dimethylsulfoxide (DMSO) (1% v/v), the PAR1 antagonist vorapaxar (90 nM), the anti-PAR4 antibody 5RC3 (20-100 μg/ml), or a combination of vorapaxar and 5RC3. Platelets were treated with one of thrombin (0.1 U/ml) and aggregation was analysed at 37° C. in a FLUOstar OPTIMA plate reader (BMG Labtech) using a 595 nm excitation filter, for a period of 50 min (10 read cycles with 5 min double orbital shake period between each read). Optical density was normalised against the blank (maximum) and unstimulated platelets (minimum) and expressed as % maximum.
Thrombin-induced platelet aggregation in the presence of a PAR1 antagonist (i.e. PAR4-dependent aggregation) is shown for 30 monoclonal antibody supernatants binding to human platelets. Antibody supernatant was mixed with human platelets (2×10^8 cells) at a 1:1 ratio.

Changes are numbered by the printed parent chain.

T1 sequence (Q96RI0 35-54 limits assumed): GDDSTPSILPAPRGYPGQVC
T2 sequence (Q96RI0 with tags, fused parts or gaps limits assumed): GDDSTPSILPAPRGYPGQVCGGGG

As to hirudin [reference compound], in assay [1], the fibrin volume result is listed as “abolished”, the platelet deposition result is “continued platelet deposition” and the thrombin activity result is recorded as “abolished”.

B1: 5I.RG1: anti-PAR4 monoclonal antibody, IgG3/K, SEQ ID NOs 45 and 46 (antibody, V domains shown)
VH: QVQLQQWGAGLLKPSETLSLACAISSGSFSTYFWRWIRQPPGKGLEWIGEIIHTGSTTYNPSLKSRVTISVDTSKNQLSLKLSSVTAADTAVYYCAFEYSSSGGYYYGMDVWGQGTTVTVSS
VL: DIQMTQSPSSLSASVGDRVTITCRASQSISSYLNWYQQIPGKAPNLLIYAASSLRSGVPSRFSGSGSGTDFTLTISSLQPEDFATYYCQQTYSTPLTFGGGTKVEIK
modifications: VH of 5I.RG1; VL of 5I.RG1
As to B1, the “reactivity with hPAR4 peptide by ELISA” value in assay [2] is recorded as “least reactive”. In assay [3], the ka was 14000 M⁻¹ s⁻¹ and the kd is 0.00146 s⁻¹. In addition, in assay [4], the ka was 1.85e+06 M⁻¹ s⁻¹ and the kd is 0.000667 s⁻¹.

B2: MoB5I G1: hybridoma supernatant clone, second screening; likely parent of 5I.RG1 (antibody, V domains shown)
VH: B1 VH
VL: B1 VL
Consider B2, for which the “Functional screen on hybridoma supernatants” value (“Functional screen” for short) in assay [5] is recorded as “Yes (+) (aggregation between 50-80% of control)”.

B3: 5H.RF2: anti-PAR4 monoclonal antibody, IgG2a/K, SEQ ID NOs 107 and 108 (antibody, V domains shown)
VH: QVQLQQWGAGLLKPSETLALTCAVYGGSLSDYYWSWIRQPPGKGLEWIGEINHSGTTNYNPSLKSRVTISVDTSKKQFSLKLSSVTAADTAVYYCAIEYSNSRGYYYGMDVWGQGTTVTVSS
VL: DIQMTQSPSSLSASAGDRITITCRASQTISNYLNWYQQKPGKAPKLLIYAASSLQSGVPSRFSGSGSGTDFTLTISSLQPEDFASYYCRQNYNTPLTFGGGTKVEIK
modifications: VH of 5H.RF2; VL of 5H.RF2
In the case of B3, the “reactivity with hPAR4 peptide by ELISA” value in assay [2] was “least reactive”. The ka in assay [3] amounted to 58400 M⁻¹ s⁻¹; in assay [4], 1.84e+06 M⁻¹ s⁻¹. The kd in assay [3] was found to be 0.00227 s⁻¹; in assay [4], 0.00111 s⁻¹.

B4: MoB5H F2: hybridoma supernatant clone, second screening; likely parent of 5H.RF2 (antibody, V domains shown)
VH: B3 VH
VL: B3 VL
Regarding B4, the “Functional screen” value in assay [5] was “no”.

B5: MoB5H H4: hybridoma supernatant clone, second screening; likely parent of 5H.RH4 (antibody, V domains shown)
VH: QVQLQQWGAGLLKPSETLSLTCAVYGGSFSNYYWSWIHQPPGKGLEWIGEINHSGSTNYNPSLKSRVTISVDTSKKQFSLNLSSVTAADTAVYYCKVEHSSSSGHYYYGMDVWGQGTTVTVSS
VL: B1 VL with S28T, S31Y, I39K, N45K, S53R, R55Q, A84T, T91S, E105G
With B5, the “Functional screen” value in assay [5] is on record as “Yes (+) (aggregation between 50-80% of control)”.
